The text below walks through data of publication PMC4938386, “Calcium Influx of Mast Cells Is Inhibited by Aptamers Targeting the First Extracellular Domain of Orai1”.

In data set [1] the target is Orai1 peptide (first extracellular domain) (UniProt Q96D31). As to the kind of experiment: ELONA. To be noted: 0.1 ug/well aptamer; lowest of six; value from stated range; SHCMK: 20 mM Hepes pH 7.35, 120 mM KCl, 1 mM CaCl2, 1 mM MgCl2; 37 C, 3 h (2 h for Kd); peptide-coated plates, wash with 0.05% Tween ….
The target of data set [2] is T1, Orai1 peptide (first extracellular domain) (UniProt Q96D31).
T1 chain: DADHDYPPGLL
As to the kind of experiment: ELONA; SHCMK: 20 mM Hepes pH 7.35, 120 mM KCl, 1 mM CaCl2, 1 mM MgCl2; 37 C, 3 h (2 h for Kd); peptide-coated plates, wash with 0.05% Tween 20. To be noted: tags: none stated; coated on polystyrene plate; label: biotin.

In turn, “TGCGAGCATCTCGCTATCAGAGTGAGGTGATTTGTGCATA [Aptamer Y8]” registered a binding signal in data set [1] of 1.18 OD450. TAGGATCCCCAGACCTGCCCGCCATGT (ssDNA) [ONT2]: in data set [2], the binding result is listed as “no binding”. Regarding GGTACCGCAGAATTGGGAAGAGATAGA (ssDNA) [ONT3], in data set [2], the binding result was “no binding”. On the same count and under the same terms, the result for TCAAGCTTATGACCGAGCGCCGCGTGCC (ssDNA) [ONT1] reads “no binding”.
